Source: patent US20130058962A1 (published 2013)
Where “and” joins values, the source holds several entries; their conditions need not be identical. Equal values may be shown once.

Columns and labels:
[1] = target: Clostridium difficile toxin A (TcdA) holotoxin (Clostridium difficile) (UniProt P16154); test: cell-based or functional assay
[2] = target: Clostridium difficile toxin B (TcdB) holotoxin (Clostridium difficile) (UniProt P18177); test: cell-based or functional assay
[3] = target: T1, Botulinum neurotoxin serotype A1 (BoNT/A) holotoxin (Clostridium botulinum, UniProt P0DPI1 2-1296); test: binding competition assay
[4] = target: purified recombinant BoNT/A light chain (Clostridium botulinum, UniProt P0DPI1 2-448); test: ELISA on BoNT subunits / Western blot of reduced holotoxin
BoNT/A heavy chain = BoNT/A heavy chain (Clostridium botulinum, UniProt P0DPI1 449-1296); test: as above
[5] = target: T1, Botulinum neurotoxin serotype A1 …; test: method not stated

Chain of Clostridium difficile toxin B (TcdB) holotoxin (Clostridium difficile) (P18177 2-2366): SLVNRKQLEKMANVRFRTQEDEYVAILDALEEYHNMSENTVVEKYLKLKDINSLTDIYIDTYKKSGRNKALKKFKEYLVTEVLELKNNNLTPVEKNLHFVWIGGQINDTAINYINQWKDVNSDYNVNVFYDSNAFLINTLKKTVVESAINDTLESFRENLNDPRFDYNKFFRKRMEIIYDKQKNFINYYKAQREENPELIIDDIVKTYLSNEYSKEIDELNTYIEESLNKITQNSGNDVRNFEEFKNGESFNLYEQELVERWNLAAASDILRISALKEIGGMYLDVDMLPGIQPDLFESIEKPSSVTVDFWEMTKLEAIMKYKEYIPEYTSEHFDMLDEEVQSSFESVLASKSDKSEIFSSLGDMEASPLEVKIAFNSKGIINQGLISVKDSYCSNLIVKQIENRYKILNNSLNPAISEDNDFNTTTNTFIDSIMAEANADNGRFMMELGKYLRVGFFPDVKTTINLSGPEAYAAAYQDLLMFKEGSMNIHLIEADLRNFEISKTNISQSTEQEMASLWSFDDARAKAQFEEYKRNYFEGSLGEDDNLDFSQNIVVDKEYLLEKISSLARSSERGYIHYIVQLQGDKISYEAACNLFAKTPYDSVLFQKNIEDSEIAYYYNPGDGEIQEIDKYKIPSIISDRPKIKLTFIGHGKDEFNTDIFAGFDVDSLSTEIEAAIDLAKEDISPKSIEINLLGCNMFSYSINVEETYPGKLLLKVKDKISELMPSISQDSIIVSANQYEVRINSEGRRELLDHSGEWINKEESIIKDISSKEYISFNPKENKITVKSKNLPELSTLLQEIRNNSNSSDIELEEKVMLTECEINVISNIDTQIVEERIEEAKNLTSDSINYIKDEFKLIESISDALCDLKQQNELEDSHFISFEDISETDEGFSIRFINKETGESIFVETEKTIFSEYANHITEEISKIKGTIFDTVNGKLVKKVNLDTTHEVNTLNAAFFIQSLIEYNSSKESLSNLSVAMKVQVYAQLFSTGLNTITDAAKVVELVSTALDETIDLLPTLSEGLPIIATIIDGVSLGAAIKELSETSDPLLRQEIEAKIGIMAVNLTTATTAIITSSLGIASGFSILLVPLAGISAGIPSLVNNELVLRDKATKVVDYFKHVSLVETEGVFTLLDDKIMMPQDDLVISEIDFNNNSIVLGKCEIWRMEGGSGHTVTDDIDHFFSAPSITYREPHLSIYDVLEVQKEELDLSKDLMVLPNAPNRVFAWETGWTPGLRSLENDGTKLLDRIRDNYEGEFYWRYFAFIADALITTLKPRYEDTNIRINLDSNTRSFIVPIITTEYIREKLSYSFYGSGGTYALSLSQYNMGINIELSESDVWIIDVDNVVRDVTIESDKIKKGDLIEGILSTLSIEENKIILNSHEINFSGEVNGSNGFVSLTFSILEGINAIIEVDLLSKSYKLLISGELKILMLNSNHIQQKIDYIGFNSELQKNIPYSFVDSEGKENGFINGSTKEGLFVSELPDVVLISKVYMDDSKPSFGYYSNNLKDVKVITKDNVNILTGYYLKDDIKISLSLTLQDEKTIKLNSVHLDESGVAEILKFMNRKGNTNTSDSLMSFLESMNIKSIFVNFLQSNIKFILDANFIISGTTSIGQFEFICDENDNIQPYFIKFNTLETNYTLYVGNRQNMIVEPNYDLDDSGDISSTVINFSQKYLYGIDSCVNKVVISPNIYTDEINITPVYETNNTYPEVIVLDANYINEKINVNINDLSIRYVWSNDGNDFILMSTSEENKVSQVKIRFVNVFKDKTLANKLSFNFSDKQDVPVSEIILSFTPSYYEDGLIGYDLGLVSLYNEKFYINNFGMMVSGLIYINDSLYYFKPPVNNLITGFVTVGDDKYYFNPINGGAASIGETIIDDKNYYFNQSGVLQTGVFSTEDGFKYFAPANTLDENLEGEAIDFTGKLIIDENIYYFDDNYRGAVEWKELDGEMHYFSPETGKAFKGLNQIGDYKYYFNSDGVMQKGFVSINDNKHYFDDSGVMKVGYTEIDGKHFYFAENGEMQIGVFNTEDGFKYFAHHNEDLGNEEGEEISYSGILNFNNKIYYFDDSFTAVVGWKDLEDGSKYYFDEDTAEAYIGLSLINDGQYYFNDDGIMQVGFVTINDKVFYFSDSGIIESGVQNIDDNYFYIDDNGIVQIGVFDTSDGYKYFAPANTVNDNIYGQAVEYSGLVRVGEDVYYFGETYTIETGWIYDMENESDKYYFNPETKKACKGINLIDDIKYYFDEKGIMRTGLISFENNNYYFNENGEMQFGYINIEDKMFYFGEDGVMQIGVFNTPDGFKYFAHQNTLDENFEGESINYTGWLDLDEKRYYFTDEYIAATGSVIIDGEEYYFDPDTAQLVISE
Chain of Clostridium difficile toxin A (TcdA) holotoxin (Clostridium difficile) (P16154 whole entry): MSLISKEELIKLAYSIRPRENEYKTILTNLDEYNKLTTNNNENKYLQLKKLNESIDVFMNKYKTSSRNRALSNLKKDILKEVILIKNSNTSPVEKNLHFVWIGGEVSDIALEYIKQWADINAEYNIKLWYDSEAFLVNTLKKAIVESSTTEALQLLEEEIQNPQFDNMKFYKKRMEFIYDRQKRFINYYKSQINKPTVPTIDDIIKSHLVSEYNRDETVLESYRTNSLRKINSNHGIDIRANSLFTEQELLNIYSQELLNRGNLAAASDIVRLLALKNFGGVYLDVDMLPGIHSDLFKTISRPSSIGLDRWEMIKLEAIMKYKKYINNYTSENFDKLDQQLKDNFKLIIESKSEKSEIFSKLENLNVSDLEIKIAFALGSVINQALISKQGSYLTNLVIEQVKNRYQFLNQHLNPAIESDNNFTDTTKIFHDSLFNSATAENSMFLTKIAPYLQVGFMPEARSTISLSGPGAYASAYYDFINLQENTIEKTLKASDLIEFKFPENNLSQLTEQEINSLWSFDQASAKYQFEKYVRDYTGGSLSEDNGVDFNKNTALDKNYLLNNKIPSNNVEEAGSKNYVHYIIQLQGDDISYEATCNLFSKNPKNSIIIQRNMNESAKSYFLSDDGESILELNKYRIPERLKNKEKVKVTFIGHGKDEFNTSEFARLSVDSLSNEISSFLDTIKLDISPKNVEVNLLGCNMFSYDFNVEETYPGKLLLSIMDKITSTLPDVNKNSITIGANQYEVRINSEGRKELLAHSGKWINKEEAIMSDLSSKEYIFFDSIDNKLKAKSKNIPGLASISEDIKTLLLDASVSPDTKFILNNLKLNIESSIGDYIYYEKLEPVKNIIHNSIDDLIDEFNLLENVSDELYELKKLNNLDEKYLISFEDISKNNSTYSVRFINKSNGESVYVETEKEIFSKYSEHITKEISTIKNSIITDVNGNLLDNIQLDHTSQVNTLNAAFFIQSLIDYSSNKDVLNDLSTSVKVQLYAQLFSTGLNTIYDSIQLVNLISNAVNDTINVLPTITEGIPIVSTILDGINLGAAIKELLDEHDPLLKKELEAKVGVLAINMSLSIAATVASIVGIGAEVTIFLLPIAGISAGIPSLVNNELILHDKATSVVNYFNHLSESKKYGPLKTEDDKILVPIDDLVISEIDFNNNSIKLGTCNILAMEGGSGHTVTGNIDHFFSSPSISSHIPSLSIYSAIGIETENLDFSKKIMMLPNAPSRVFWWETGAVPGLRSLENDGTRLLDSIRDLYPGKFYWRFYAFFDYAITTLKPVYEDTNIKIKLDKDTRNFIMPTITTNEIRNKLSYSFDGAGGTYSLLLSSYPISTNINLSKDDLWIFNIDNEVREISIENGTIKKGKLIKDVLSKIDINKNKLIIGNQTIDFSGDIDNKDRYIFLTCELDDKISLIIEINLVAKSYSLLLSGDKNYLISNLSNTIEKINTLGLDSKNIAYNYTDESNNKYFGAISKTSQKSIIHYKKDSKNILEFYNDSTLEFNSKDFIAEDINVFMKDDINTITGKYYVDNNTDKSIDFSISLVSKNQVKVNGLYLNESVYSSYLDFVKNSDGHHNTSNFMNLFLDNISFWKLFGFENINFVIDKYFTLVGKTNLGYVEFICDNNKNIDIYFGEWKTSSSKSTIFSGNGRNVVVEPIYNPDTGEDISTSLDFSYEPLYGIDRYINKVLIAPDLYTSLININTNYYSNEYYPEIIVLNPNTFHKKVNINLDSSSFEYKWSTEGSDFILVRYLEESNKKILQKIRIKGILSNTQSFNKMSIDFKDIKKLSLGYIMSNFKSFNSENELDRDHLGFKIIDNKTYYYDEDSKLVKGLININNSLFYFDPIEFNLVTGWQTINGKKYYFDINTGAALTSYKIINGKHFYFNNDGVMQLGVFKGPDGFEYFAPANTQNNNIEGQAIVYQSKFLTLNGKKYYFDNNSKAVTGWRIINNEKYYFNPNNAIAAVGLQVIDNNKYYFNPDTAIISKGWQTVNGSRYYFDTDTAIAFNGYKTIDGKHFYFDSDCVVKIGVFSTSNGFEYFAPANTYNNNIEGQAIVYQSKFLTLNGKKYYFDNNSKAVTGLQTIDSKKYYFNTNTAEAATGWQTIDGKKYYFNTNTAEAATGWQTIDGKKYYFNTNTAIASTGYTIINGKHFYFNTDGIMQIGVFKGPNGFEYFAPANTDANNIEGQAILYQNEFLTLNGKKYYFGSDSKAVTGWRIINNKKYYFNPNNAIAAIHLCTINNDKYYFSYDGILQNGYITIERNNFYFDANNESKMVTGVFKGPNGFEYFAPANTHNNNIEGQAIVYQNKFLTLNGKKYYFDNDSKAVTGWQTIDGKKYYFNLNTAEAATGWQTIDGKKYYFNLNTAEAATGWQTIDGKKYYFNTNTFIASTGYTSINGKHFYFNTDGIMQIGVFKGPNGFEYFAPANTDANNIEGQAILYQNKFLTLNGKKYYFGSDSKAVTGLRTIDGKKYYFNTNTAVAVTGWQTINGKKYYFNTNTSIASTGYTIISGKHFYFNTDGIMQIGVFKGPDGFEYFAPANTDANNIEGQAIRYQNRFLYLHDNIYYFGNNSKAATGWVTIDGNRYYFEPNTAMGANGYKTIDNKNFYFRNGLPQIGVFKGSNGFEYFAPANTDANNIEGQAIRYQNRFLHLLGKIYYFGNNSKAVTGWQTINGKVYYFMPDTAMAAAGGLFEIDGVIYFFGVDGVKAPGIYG

B1: 5D/AA6 VHH heterodimer (bispecific antibody)
chain: QVQLVESGGGLVQPGGSLRLSCEASGFTLDYYGIGWFRQPPGKEREAVSYISASARTILYADSVKGRFTISRDNAKNAVYLQMNSLKREDTAVYYCARRRFSASSVNRWLADDYDVWGRGTQVAVSSEPKTPKPQGGGGSGGGGSGGGGSQLQLVETGGGLVQPGGSLRLSCAASGFTFSDYVMTWVRQAPGKGPEWIATINTDGSTMRDDSTKGRFTISRDNAKNTLYLQMTSLKPEDTALYYCARGRVISASAIRGAVRGPGTQVTVSSEPKTPKPQP
For B1, the fold neutralization of TcdA against the 5D/AH3 heterodimer (CT26 cell rounding) [1] was 5 fold and the fold neutralization of TcdB against the 5D/AH3 heterodimer [2] was 3 fold and 4 fold.

B2: JDQ-E9 (VHH)
VHH: QVQLVESGGGLVRPGGSLRLSCVVSGFAYEMPMMGWYRQAPGNQRELVATIGTGGRMNYADSVKGRFTISRDNAKNTVYLQMNSLKPEDTAAYYCKIEFTNYWGQGTQVTVSS
B2: binds [3].

B3: ciA-G5 (VHH)
VHH: QVQLVESGGGLVQPGGSLRLSCQVSGFTFGDWVMSWFRQAPGKEREFVASITATSSLKYYADSVKGRFTISRDNVNNTLFLQMDRLKSEDTAVYYCRSPNYWGQGTQVTVSA
B3: no binding [4]; no binding (BoNT/A heavy chain).

B4: ciA-A5 (VHH)
VHH: QVQLVESGGGLVQPGGSLRLSCAASAGNLDYYAIGWFRQAPGKEREGVSCISSSDGSTVYTDSVKGRFTISRDNTKNTVDLQMDNLKPEDTAVYYCATVVNYYCTAGGSIHASPYEIWGQGTQVTVSS
B4: no binding [4]; no binding (BoNT/A heavy chain).

B5: JDQ-B2 (VHH)
VHH: QVQLVESGGGLVQPGGSLRLSCTVSGSIFDLPGMNWYRQAPGAQRELVADISSDGRRTNYADSVKGRFTMSRDNAKKTVYLQMDSLKPDDTAVYYCNVKFTHHWGQGIQVTVSS
B5: binds [3].

B6: JDQ-C5 (VHH)
VHH: QVQLVESGGGLVQPGGSLRLSCTVSGSIFGLPGMSWYRQAPGAQRELVADISSDGGRTHYADSVKGRFTISRDNDKKTVYLQMDSLKPDDTAVYYCNVKFTHHWGQGIQVTVSS
B6: binds [3].

B7: scFv#7 (scFv)
scFv: SYELTQPPSMSVALGQTAKVTCQGDNLENFYVQWHQQKPGQAPVTVIFQDNKRPSGIPDRFSGSNSGNTATLTISGARTEDEADYYCQSGHSSIGGVFGSGTSLTVLGQPAAAGGGGSGGGGSGGGGSARQVQLQESGPSLVKPSQTLSLTCTVSGFSLTGNSVTWVRQAPGNVPEWLGGISRGGRTYYDTALKSRLSITRDTSKRQVSLSLSSVTTEDTAMYFCARSAYSTLYDYEYAADIYDWGPGLLVTVSSTSGAPVPYPDPLEPRAA
Work on B7 yielded a Kd [5] of roughly 1 nM.

B8: JDQ-F9 (VHH)
VHH: QVQLVESGGGLVQDGGSLRLSCTTSGSIDSFNAIEWYRQAPGKQRELVASISSDGRRTNYADSVKGRFTISGDNAKNTVYLQMNSLKPEDTAVYYCHRPFTHYWGQGTQVTVSS
B8: binds [3].
